Measured values: the supplement of paper PMC9732359
± gives the uncertainty stated by the source.

Experiment: protein stability index of a GFP-peptide fusion (yeast GPS) (PSI 1-4); higher = more stable; sorted into four equal gates, so the index is relative within each strain
In short: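 Tiled yeast protein peptides of 17 residues were each joined downstream of GFP, on plasmids that also express Cherry. The pooled library was maintained in yeast, and mid-log cultures in leucine-free medium were sorted into four equal gates on the GFP/Cherry ratio. Plasmids from every gate were amplified by PCR and sequenced on Illumina, with barcodes linking reads to strains. The protein stability index of a peptide is its gate-number-weighted read frequency summed over the gates.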

Sequence	protein stability index (doa10∆)	protein stability index (pdr5∆)	protein stability index (san1∆)	protein stability index (ubr1∆)
LHVLVAHKLKKSLDSIP [FAS2]	2.31 ± 0.091	2.1 ± 0.088	1.83 ± 0.24	1.68 ± 0.073
WQIEEAGNSQITSGGFL [SRB5]	2.98 ± 0.2	3.13 ± 0.17	3.07 ± 0.25	3.23 ± 0.14
NQLVAKLLLLRINSTDE [SRB8]	1.67 ± 0.11	1.22 ± 0.17	–	1.14 ± 0.055
ENELVITSIPKPLTENC [RMP1]	3.42 ± 0.14	3.4 ± 0.11	3.39 ± 0.066	3.1 ± 0.07
VRSAEYYAKKRAFTKKV [RPL16B]	2.66 ± 0.1	2.18 ± 0.066	2.61 ± 0.091	3.1 ± 0.063
TTVYRYSAAKKIPDTYT [YAR002W/NUP60]	1.34 ± 0.087	2.07 ± 0.094	1.42 ± 0.14	1.45 ± 0.077
QNPLPTRFEVELEFIQS [SOH1]	2.38 ± 0.083	2.39 ± 0.073	2.29 ± 0.084	2.83 ± 0.078
KSVYETPKITAAEKSFK [SEC65]	–	2.08 ± 0.19	–	1.53 ± 0.08
QVSNFAPQVYIITKNEN [GAL11]	2.96 ± 0.16	1.98 ± 0.11	2.38 ± 0.26	1.67 ± 0.084
IVNHEQDLPKINDKRAN [SRB4]	3.28 ± 0.19	3.21 ± 0.11	2.96 ± 0.098	3.08 ± 0.08
SSNPQSAYVKAFYQKGN [SMC1]	1.87 ± 0.049	1.98 ± 0.047	1.96 ± 0.052	1.95 ± 0.033
NDTSSGTNAMLPSPESL [SNF5]	2.73 ± 0.042	2.84 ± 0.049	2.74 ± 0.035	2.8 ± 0.042
KTLNLFKQIKSADCELL [RPO31]	1.22 ± 0.21	1.06 ± 0.035	1.23 ± 0.29	1.05 ± 0.094
IKTQQHILPEVPPVENF [TAF14]	2.21 ± 0.1	2.42 ± 0.082	2.89 ± 0.086	2.95 ± 0.073
AAAEIADEPVKASLLLH [FAS2]	3.1 ± 0.18	3.01 ± 0.24	2.75 ± 0.19	1.17 ± 0.21
KPETPKGPIIISKNPSN [SIR2]	2.92 ± 0.063	3 ± 0.052	2.67 ± 0.06	2.88 ± 0.046
PSYYGVRDTSPHGISVF [BRR2]	1.35 ± 0.069	1.41 ± 0.057	2.29 ± 0.077	1.94 ± 0.045
DSFSGAKIYPGRGTLFV [RPL24A]	3.13 ± 0.065	3.08 ± 0.067	2.78 ± 0.06	2.68 ± 0.052
DKLEKVTHDCYRVTLES [RPC34]	3.37 ± 0.16	3.3 ± 0.06	3.25 ± 0.075	3.12 ± 0.085
MKLSMPPEVTSSNCHVR [POP1]	2.4 ± 0.066	2.6 ± 0.075	2.32 ± 0.076	2.48 ± 0.042
ALFLSKINRPPVSVSRI [RPL18A]	2.29 ± 0.14	1.63 ± 0.076	1.6 ± 0.14	2.16 ± 0.16
MKKKLELISYRNESLKN [SRB8]	2.96 ± 0.045	2.98 ± 0.058	2.94 ± 0.05	3.07 ± 0.035
FTGNNSTPGGGSVFNMN [YOR098C/NUP1]	2.9 ± 0.097	3.58 ± 0.19	–	3.03 ± 0.14
VKGTNISEKDLVPKRCL [RPO31]	2.63 ± 0.12	3.39 ± 0.13	3.42 ± 0.082	3.12 ± 0.09
TNKDIICQIISSTITGD [RPL5]	2.6 ± 0.055	2.13 ± 0.057	2.94 ± 0.1	2.24 ± 0.055
RVTGGMKVKADRDESSP [RPS14A]	3.31 ± 0.077	3.24 ± 0.063	3.28 ± 0.038	3.26 ± 0.05
GLMLGEFVDDYTVNVVD [RPN11]	3.32 ± 0.13	3.26 ± 0.1	3.13 ± 0.14	3.09 ± 0.076

Sequence	protein stability index (doa10∆)	protein stability index (pdr5∆)	protein stability index (san1∆)	protein stability index (ubr1∆)
GLFQVLHNFESVAPTKQ [NUT1]	2.99 ± 0.075	2.87 ± 0.075	2.75 ± 0.052	3.12 ± 0.035
NDDFSEVFEFKTFNKIQ [BRR2]	2.01 ± 0.051	2.06 ± 0.061	2.24 ± 0.083	2.64 ± 0.097
FKDVEHISFNFSMLQMA [BRR2]	1.76 ± 0.076	1.59 ± 0.056	2.33 ± 0.15	2.03 ± 0.049
LMATEYQDIEGGFEDVE [RPB2]	3.43 ± 0.14	3.31 ± 0.11	3.49 ± 0.069	3.44 ± 0.099
QFDIQSPLYMDTETFDT [YML103C/NUP188]	3.11 ± 0.093	2.88 ± 0.064	3.02 ± 0.063	3.28 ± 0.06
ITSWYENHNKGKLWKDV [QCR9]	2.81 ± 0.21	3.14 ± 0.23	3.3 ± 0.1	3.21 ± 0.13
YRSCETQDESEIKDAET [SMC4]	3.77 ± 0.25	–	3.31 ± 0.16	–
TTIKAIFDGNYGESDIH [YMR129W/POM152]	3.23 ± 0.09	2.97 ± 0.14	3.58 ± 0.2	2.89 ± 0.12
NNVYFAAGALFVSSGFD [RPN14]	1.78 ± 0.13	2.81 ± 0.15	1.92 ± 0.29	2.21 ± 0.17
SDLINKDLVKNNVSFNA [FAS1]	2.61 ± 0.068	2.58 ± 0.074	1.62 ± 0.11	2.26 ± 0.053
FLEKEKQLTLLRSKLFQ [SMC4]	2.46 ± 0.094	1.99 ± 0.067	1.86 ± 0.12	2.56 ± 0.043
KLVRESELLGGTFKSTL [QCR2]	2.53 ± 0.12	2.82 ± 0.1	2.35 ± 0.093	3.18 ± 0.063
GGNGPEDFQQHEQIRRK [RPO26]	3.3 ± 0.1	3.39 ± 0.072	3.09 ± 0.089	3.44 ± 0.083
EEEESILIAMQPEDLEP [RPB2]	–	–	2.33 ± 0.13	–
EEIRSQIDHFKSMLSKP [SWI3]	1.65 ± 0.045	2.32 ± 0.065	2.67 ± 0.053	2.35 ± 0.04
HHIHHFEKKELQEKFLN [IRR1]	1.72 ± 0.035	1.61 ± 0.043	1.87 ± 0.068	1.56 ± 0.037
YDPSIGIFGMDFYVVMN [RPL11A]	2.26 ± 0.05	2.24 ± 0.052	2.31 ± 0.055	2.55 ± 0.037
EKTGKSASLKKIQQHNT [BRR2]	–	2.96 ± 0.2	–	–
NVFARLSRLLSLWEVFQ [RPC82]	1.78 ± 0.16	2.06 ± 0.13	2.79 ± 0.14	2.38 ± 0.067
DFQIDGNIFELLSDTFE [RRI2]	2.04 ± 0.095	2.47 ± 0.077	2.95 ± 0.11	3.16 ± 0.17
DENKAGATSKPAFSFGA [YJL041W/NSP1]	3.15 ± 0.07	3.32 ± 0.068	3.33 ± 0.048	3.1 ± 0.061
ASIGQAAEQQSKAFKES [SRP54]	3.45 ± 0.19	3.33 ± 0.17	3.14 ± 0.096	3.16 ± 0.082
MAKCLDNPDQGISDMCR [YCS4]	3.39 ± 0.19	3.55 ± 0.13	3.33 ± 0.13	3.2 ± 0.15
PPKPRKVLQLLRLTRIN [RPL7A]	1.95 ± 0.095	1.57 ± 0.077	1.7 ± 0.12	1.09 ± 0.061
DNDRFNVVGKLISIISS [YML103C/NUP188]	1.3 ± 0.064	1.24 ± 0.073	1.21 ± 0.081	1.2 ± 0.047
FGIYILTQGINGKEVPL [MED1]	1.48 ± 0.1	1.45 ± 0.068	2.43 ± 0.14	1.38 ± 0.066
SVKPHVVEPEHMADAKI [SIR4]	2.68 ± 0.14	2.92 ± 0.14	3.1 ± 0.1	3 ± 0.17
